Measured values published in IntAct's records for PubMed 23686307.

Molecular target: tf65_human RELA (UniProt Q04206)

Row | Substance | effect of a mutation on the interaction
1 | Bromodomain-containing protein 4 (Homo sapiens) (from UniProt O60885) Y139A;N140A | decreasing interaction
2 | Bromodomain-containing protein 4 (Homo sapiens) (from UniProt O60885) Y139A;N140A;Y432A;N433A | disrupting interaction
3 | Bromodomain-containing protein 4 (Homo sapiens) (from UniProt O60885) Y432A;N433A | decreasing interaction
